Measured values published in the supplement of paper PMC7877785.
± gives the uncertainty stated by the source.

Test: self-splicing fitness, log relative to wild type (ln ratio); higher = more splicing; Tetrahymena group I intron in knt gene, E. coli kanamycin selection, DiMSum; sequences stand for … in CUCUCU…GGAGGGAAAAGUUAUCAGGCAUGCACCUGGUAGCUAGUCUUUAAACCAAUAGAUUGCAUCGGUUUAAAAGGCAAGACCGUCAAAUUGCGGGAAAGGGGUCAACAGCCGUUCAGUACCAAGUCUCAGGGGAAACUUUGAGAUGGCCUUGCAAAGGGUAUGGUAAUAAGCUGACGGACAUGGUCCUAACCACGCAGCCAAGUCCUAAGUCAACAGAUCUUCUGUUGAUAUGGAUGCAGUUCACAGACUAAAUGUCGGUCGGGGAAGAUGUAUUCUUCUCAUAAGAUAUAGUCGGACCUCUCCUUAAUGGGAGCUAGCGGAUGAAGUGAUGCAACACUGGAGCCGCUGGGAACUAAUUUGUAUGCGAAAGUAUAUUGAUUAGUUUUGGAGUACUCGUGGUCG
Summary of the method: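 DiMSum derived fitness as the error-weighted combination of fold changes across replicates, kanamycin versus no kanamycin, normalised to wild type. E. coli BL21(DE3) held the library, which randomised all eight P1ex-region intron nucleotides within the knt kanamycin-resistance gene on pET-22b(+). Six replicate transformations grew overnight at 37°C or 30°C on LB agar with or without 25 μg/mL kanamycin, also containing 100 μg/mL carbenicillin, 50 μM IPTG and 0.2% rhamnose, and pooled colonies were amplicon-sequenced on an Illumina HiSeq 2500.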

Sequence	self-splicing fitness (ln) (30 °C)	self-splicing fitness (ln) (37 °C)
UGAGAGCAAUAUUACGCUAC	-2.4 ± 0.49	
UGAGAGCAAUAUUACGCUCA		-1.22 ± 0.38
UGAGAGCAAUAUUACGGAGU	-2.89 ± 0.29	
UGAGAGCAAUAUUACGGAUU	-3.39 ± 0.29	
UGAGAGCAAUAUUACGGCGU	-4.04 ± 0.35	-2.81 ± 0.34
UGAGAGCAAUAUUACGUACU		-1.87 ± 0.25
UGAGAGCAAUAUUACGUCGG	-2.21 ± 0.2	-1.77 ± 0.31
UGAGAGCAAUAUUACGUGCA	-1.53 ± 0.087	-0.611 ± 0.1
UGAGAGCAAUAUUACGUUCG	-2.08 ± 0.13	-1.3 ± 0.15
UGAUAGCAAUAUUACGAAAU	-2.83 ± 0.34	-2.19 ± 0.27
UGAUAGCAAUAUUACGAAGA	-2.56 ± 0.26	-1.97 ± 0.22
UGAUAGCAAUAUUACGAGAG	-3.29 ± 0.43	-1.65 ± 0.18
UGAUAGCAAUAUUACGAGCA	-0.12 ± 0.094	-0.0253 ± 0.14
UGAUAGCAAUAUUACGAGUC	-3.08 ± 0.22	-3.08 ± 0.4
UGAUAGCAAUAUUACGAUGG	-1.56 ± 0.11	-1.72 ± 0.16
UGAUAGCAAUAUUACGCAAA	-2.25 ± 0.19	-0.0467 ± 0.16
UGAUAGCAAUAUUACGCCUG	0.213 ± 0.14	0.502 ± 0.2
UGAUAGCAAUAUUACGCGGA	-2.4 ± 0.48	-0.465 ± 0.29
UGAUAGCAAUAUUACGGGCU	-2.42 ± 0.13	-2.11 ± 0.14
UGAUAGCAAUAUUACGGGUC	-4.2 ± 0.34	-2.63 ± 0.37
UGAUAGCAAUAUUACGUACC	-1.76 ± 0.2	-1.6 ± 0.26
UGAUAGCAAUAUUACGUCGC		-2.13 ± 0.39
UGAUAGCAAUAUUACGUCUA	0.0941 ± 0.089	-0.107 ± 0.094
UGAUAGCAAUAUUACGUGGA	-3.45 ± 0.3	-2.23 ± 0.2
UGAUAGCAAUAUUACGUGGG	-2.86 ± 0.17	-0.621 ± 0.11

Sequence	self-splicing fitness (ln) (30 °C)	self-splicing fitness (ln) (37 °C)
UGAUAGCAAUAUUACGUUUA	-2.2 ± 0.12	-0.742 ± 0.1
UGCAAGCAAUAUUACGAAAU	-3.34 ± 0.2	-2.04 ± 0.22
UGCAAGCAAUAUUACGAAGG	-1.6 ± 0.12	-1.47 ± 0.2
UGCAAGCAAUAUUACGAAUA	-1.88 ± 0.12	-1.04 ± 0.13
UGCAAGCAAUAUUACGACAA	-0.541 ± 0.088	0.237 ± 0.1
UGCAAGCAAUAUUACGCAAC	-1.9 ± 0.26	-2.11 ± 0.28
UGCAAGCAAUAUUACGCAGC	-3.6 ± 0.23	-2.58 ± 0.23
UGCAAGCAAUAUUACGCUCC	-0.565 ± 0.2	-1.37 ± 0.34
UGCAAGCAAUAUUACGGACC	-0.803 ± 0.088	-1.12 ± 0.16
UGCAAGCAAUAUUACGGAGA	-2.45 ± 0.21	-3.01 ± 0.29
UGCAAGCAAUAUUACGGAGU	-2.83 ± 0.14	-3.18 ± 0.16
UGCAAGCAAUAUUACGGCUA	0.00387 ± 0.089	-0.123 ± 0.1
UGCAAGCAAUAUUACGGGAA	-2.94 ± 0.16	-1.33 ± 0.12
UGCAAGCAAUAUUACGGGCU	-1.12 ± 0.11	-1.48 ± 0.14
UGCAAGCAAUAUUACGGGUG	-0.825 ± 0.051	-0.33 ± 0.065
UGCAAGCAAUAUUACGGUAG	-0.738 ± 0.073	-0.376 ± 0.081
UGCAAGCAAUAUUACGGUGC	-3.59 ± 0.16	-2.49 ± 0.19
UGCAAGCAAUAUUACGUGAA	-2.26 ± 0.1	-1.03 ± 0.11
UGCAAGCAAUAUUACGUGCU	-2.02 ± 0.1	-0.559 ± 0.094
UGCAAGCAAUAUUACGUUCG	-0.427 ± 0.048	-0.226 ± 0.067
UGCAAGCAAUAUUACGUUUG	-4.16 ± 0.33	-2.87 ± 0.33
UGCCAGCAAUAUUACGAACU	-2.14 ± 0.11	-0.854 ± 0.13
UGCCAGCAAUAUUACGAAUG	-1.3 ± 0.18	0.0957 ± 0.17
UGCCAGCAAUAUUACGACCC	-3.56 ± 0.24	-1.42 ± 0.21
UGCCAGCAAUAUUACGAGUU	-2.53 ± 0.17	-0.56 ± 0.14

Sequence	self-splicing fitness (ln) (30 °C)	self-splicing fitness (ln) (37 °C)
UGCCAGCAAUAUUACGAUUG	-1.63 ± 0.078	-0.196 ± 0.086
UGCCAGCAAUAUUACGCAGA	-2.81 ± 0.2	-1.66 ± 0.14
UGCCAGCAAUAUUACGCAUU	-3.81 ± 0.46	-1.24 ± 0.21
UGCCAGCAAUAUUACGCCAG	-3.29 ± 0.18	-2.39 ± 0.27
UGCCAGCAAUAUUACGCCGG	-4.03 ± 0.21	-3.05 ± 0.25
UGCCAGCAAUAUUACGCCGU	-3.97 ± 0.39	-2.32 ± 0.32
UGCCAGCAAUAUUACGCCUG	-2.1 ± 0.16	-0.0397 ± 0.12
UGCCAGCAAUAUUACGCGGA	-2.24 ± 0.1	-1.32 ± 0.094
UGCCAGCAAUAUUACGCUCG	-0.839 ± 0.086	-0.622 ± 0.14
UGCCAGCAAUAUUACGGCAC	-2.9 ± 0.33	-2.56 ± 0.3
UGCCAGCAAUAUUACGGCGA	-0.122 ± 0.072	0.211 ± 0.093
UGCCAGCAAUAUUACGGGAG	-2.75 ± 0.11	-0.763 ± 0.1
UGCCAGCAAUAUUACGGGUG	-2.99 ± 0.13	-2.98 ± 0.17
UGCCAGCAAUAUUACGGUAA	-1.15 ± 0.055	-0.9 ± 0.059
UGCCAGCAAUAUUACGGUAC		-2.89 ± 0.47
UGCCAGCAAUAUUACGUAAC	-2.39 ± 0.18	-2.36 ± 0.2
UGCCAGCAAUAUUACGUACA	-0.269 ± 0.076	0.081 ± 0.089
UGCCAGCAAUAUUACGUACG	-0.444 ± 0.061	0.435 ± 0.084
UGCCAGCAAUAUUACGUCCA	-0.0851 ± 0.076	0.335 ± 0.09
UGCCAGCAAUAUUACGUCGG	-4.72 ± 0.41	-2.68 ± 0.25
UGCCAGCAAUAUUACGUGAU	-2.59 ± 0.14	-1.6 ± 0.099
UGCCAGCAAUAUUACGUUAA	-2.48 ± 0.15	-0.729 ± 0.095
UGCCAGCAAUAUUACGUUUU	-3.79 ± 0.18	-2.56 ± 0.2
UGCGAGCAAUAUUACGAAAG	-2.87 ± 0.29	-2.87 ± 0.43
UGCGAGCAAUAUUACGAAGG	-1.75 ± 0.2	-1.91 ± 0.44

Sequence	self-splicing fitness (ln) (30 °C)	self-splicing fitness (ln) (37 °C)
UGCGAGCAAUAUUACGACGU	-2.92 ± 0.25	-0.731 ± 0.17
UGCGAGCAAUAUUACGACUC	-2.71 ± 0.27	-2.25 ± 0.25
UGCGAGCAAUAUUACGCAUU	-5.15 ± 0.34	-3.1 ± 0.23
UGCGAGCAAUAUUACGCGGG	-2.61 ± 0.3	
UGCGAGCAAUAUUACGCUGU	-3.76 ± 0.21	-2.24 ± 0.31
UGCGAGCAAUAUUACGGACC	-2.33 ± 0.19	
UGCGAGCAAUAUUACGGCAG	-1.33 ± 0.15	-1.59 ± 0.21
UGCGAGCAAUAUUACGGCUG	-1.04 ± 0.1	-0.349 ± 0.15
UGCGAGCAAUAUUACGGGGU	-2.77 ± 0.2	-3.12 ± 0.35
UGCGAGCAAUAUUACGUGCA	-2.46 ± 0.2	-1.35 ± 0.21
UGCGAGCAAUAUUACGUUAG	-2.68 ± 0.27	-2.01 ± 0.33
UGCUAGCAAUAUUACGAACG	-0.171 ± 0.097	0.803 ± 0.12
UGCUAGCAAUAUUACGACUU	-0.801 ± 0.2	-0.152 ± 0.17
UGCUAGCAAUAUUACGAGAC	-3.12 ± 0.35	-2.11 ± 0.36
UGCUAGCAAUAUUACGAGGA	-2.99 ± 0.26	-1.62 ± 0.17
UGCUAGCAAUAUUACGAGUG	-1.98 ± 0.12	-1.08 ± 0.11
UGCUAGCAAUAUUACGAUAG	-2.49 ± 0.1	-0.62 ± 0.1
UGCUAGCAAUAUUACGAUUA	-0.493 ± 0.095	-0.286 ± 0.096
UGCUAGCAAUAUUACGCAGA	-4.03 ± 0.31	-2.26 ± 0.17
UGCUAGCAAUAUUACGCAUA	-2.58 ± 0.18	-1.37 ± 0.14
UGCUAGCAAUAUUACGCCUA	-0.454 ± 0.15	-0.0492 ± 0.15
UGCUAGCAAUAUUACGCUCG	-1.2 ± 0.14	-0.909 ± 0.17
UGCUAGCAAUAUUACGCUUG	-3.74 ± 0.21	-0.96 ± 0.13
